Data reported in patent US20160194391A1 (AstraZeneca / MedImmune, published 2016).
Substitutions are numbered along the chain they refer to. Read-outs that look alike come from different tables or passages of the source.

T1: human dimeric IL-23 (eBiosciences 34-8239) (human, UniProt P29460 23-328; Q9NPF7 20-189)
T1 sequence (looked up) 1: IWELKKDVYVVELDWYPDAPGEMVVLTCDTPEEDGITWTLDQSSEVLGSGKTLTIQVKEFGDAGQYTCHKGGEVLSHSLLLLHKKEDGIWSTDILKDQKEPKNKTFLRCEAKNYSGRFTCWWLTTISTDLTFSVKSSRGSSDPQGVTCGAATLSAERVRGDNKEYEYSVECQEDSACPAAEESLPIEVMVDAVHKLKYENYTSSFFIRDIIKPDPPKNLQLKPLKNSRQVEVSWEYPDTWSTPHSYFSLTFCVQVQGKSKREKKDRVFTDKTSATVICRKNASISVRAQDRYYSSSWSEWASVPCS
T1 sequence (looked up) 2: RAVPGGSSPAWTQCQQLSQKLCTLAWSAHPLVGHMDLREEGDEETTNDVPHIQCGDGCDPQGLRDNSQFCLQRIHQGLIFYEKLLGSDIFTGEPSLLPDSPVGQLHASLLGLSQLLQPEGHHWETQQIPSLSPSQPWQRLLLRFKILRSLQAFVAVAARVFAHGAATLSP

B1: 13A8 humanized scFv (mammalian expressed) (scFv)
scFv: DIQLTQSPSFLSASVGDRVTITCQASQSISNELSWYQQKPGKAPKLLIYRASTLTSGVPSRFSGSGSGTEFTLTISSLQPEDFATYYCQQGYNSNDVDNVFGGGTKVEIKGGGGSGGGGSGGGGSGGGGSEVQLVESGGGLVQPGGSLRLSCTVSGIDLSSYDMSWVRQAPGKGLEWVGYIYTDSSTWYANWAKGRFTISRDNSKNTLYLQMNSLRAEDTAVYYCARGSTDYAFDTRLDLWGQGTLVTVSSGPPPPHHHHHH
notes: also called humanized scFv 13A8; mammalian 13A8 scFv
B2: 9C8 chimeric mAb (antibody, V domains shown)
VH: QSVEESGGRLVTPGTPLTLTCTVSGIDLSSYDMSWVRQAPGKGLEWIGYIYTDSSTYYANWAKGRFTISKTSTTVDLKMTSLTTEDTATYFCAKGSTDYAFDTRLDLWGPGTLVTVS
VL: AYDMTQTPASVEVAMGGTVTIKCQASQSISNELSWYQQKPGQPPKLLIYRTSTLASGVSSRFKGSGSGTEYTLTISGVECADAATYYCQQGYNSNDVDNVFGGGTKVVVVR
notes: Rabbit/human chimeric IgG (human IgG1, kappa); HEK293; also called 9C8 clone
B3: 14B5 chimeric mAb (antibody, V domains shown)
VH: QSVEESGGRLVTPGTPLTLTCAVSGFSLSDYTMIWVRQAPGEGLEWIGIISSSGNTYYATWVKGRFTISKTSTTVDLKMISPTTEDTATYFCARGSGAYISDYFNVWGPGTLVTVSS
VL: FELTQTPSSVEAAVEGTVTIKCQASQSIDSWLSWYQQKPGQPPKLLIYAASKLATGVPSRFSGSGSGTQFTLTIGDLECADAATYYCQSYYDVNAGYGFGGGTEVVVVR
B4: 9C8 humanized scFv (9C8 Hum scFv v3-1) (scFv)
scFv: DIQMTQSPSSVSASVGDRVTITCQASQSISNELSWYQQKPGKAPKLLIYRTSTLASGVPSRFSGSGSGTDFTLTISSLQPEDFATYYCQQGYNSNDVDNVFGGGTKVEIKGGGGSGGGGSGGGGSGGGGSEVQLVESGGGLVQPGGSLRLSCTVSGIDLSSYDMSWVRQAPGKGLEWVGYIYTDSSTYYANWAKGRFTISRDNSKNTLYLQMNSLRAEDTAVYYCARGSTDYAFDTRLDLWGQGTLVTVSSGPPPPPHHHHHH
notes: the sentence before it names 9C8 v3-1; purified by 6×His tag; also called 9C8 scFv v3-1; 9C8v3-1
B5: 28D2 N-Aha (scFv)
scFv: MEDIQLTQSPSFLSASVGDRVTITCQASEDLFSSLAWYQQKPGKAPKLLIYSASTLASGVPSRFSGSGSGTDFTLTISSLQPEDFATYYCLGLYYYLTPDPIYGFGGGTKVEIKGGGGSGGGGSGGGGSGGGGSEVQLVESGGGLVQPGGSLRLSCTVSGLSLSKNAIAWVRQAPGKGLEWVGIIYAGGATTYASWAKGRFTISRDNSKNTLYLQLNSLRAEDTAVYYCAREYAGDSYYTGYTQLDLWGQGTLVTVSSGPPPPPHHHHHH
modifications: azidohomoalanine (Aha) in place of the single Met, at the N terminus
notes: also called E. coli 28D2 scFv with Aha at the N term
B6: 28D2-L Aha (scFv)
scFv: B5 scFv with E2A, G121M
modifications: azidohomoalanine (Aha) in place of a single Met in the Gly/Ser linker between VL and VH
notes: also called E. coli 28D2 scFv with Aha in the Gly/Ser linker
B7: 28D2 humanized scFv (mammalian expressed) (scFv)
scFv: DIQLTQSPSFLSASVGDRVTITCQASEDLFSSLAWYQQKPGKAPKLLIYSASTLASGVPSRFSGSGSGTDFTLTISSLQPEDFATYYCLGLYYYLTPDPIYGFGGGTKVEIKGGGGSGGGGSGGGGSGGGGSEVQLVESGGGLVQPGGSLRLSCTVSGLSLSKNAIAWVRQAPGKGLEWVGIIYAGGATTYASWAKGRFTISRDNSKNTLYLQMNSLRAEDTAVYYCAREYAGDSYYTGYTQLDLWGQGTLVTVSSGPPPPHHHHHH
notes: also called 28D2 scFv

Legend:
human IL-6 [1] = molecular target: T2, human IL-6 (human, UniProt P05231 30-212); assay: cell-based or functional assay
3×FLAG-IL-6 [2] = molecular target: T3, 3×FLAG-IL-6 (human); assay: SPR, 3×FLAG-IL-6 captured by anti-FLAG M2 on protein G, scFv as analyte (1-100 nM)
T3 construct: it may hold the pre-pro-trypsin leader
Experimental: Equilibrium constants for scFvs were determined as previously described; however, the protocol was modified so that an epitope tagged IL-6 was captured on the chip surface and the dissociation of anti-IL-6 scFvs from IL-6 was monitored. Briefly, anti-FLAG® M2 antibody (200472, Agilent Technologies, Santa Clara, Calif.) was bound to Protein G, and then 3×FLAG-IL-6 was captured by the anti-FLAG antibody. The anti-IL-6 scFvs were assayed over a range of concentrations between 1 and 100 nM.
Anti IL-6 scFvs, humanized using the one step method, retained IL-6 neutralization activity when expressed in mammalian cells, as shown for 13A8 (FIG. 11A and FIG. 11B), 28D2 and 9C8 v3-1 (FIG. 11C).

human IL-6 [3] = molecular target: T2, human IL-6; assay: cell-based or functional assay; remark: listed apart in the source
human IL-6 [4] = molecular target: T2, human IL-6; assay: SPR (SensiQ Pioneer), mAb captured on protein G, IL-6 as analyte (3×FLAG-IL-6 or IL-6 CYT-213, 1-100 nM), 25 C, 1:1 model
Experimental: Equilibrium constants for rabbit human chimeric mAbs were determined by binding the mAb to the protein G coated chip followed by binding of each analyte (IL-6 or IL-23) to its respective mAb. In order to minimize mass transfer effects, the surface densities of the mAbs for each analyte were adjusted so that as analyte binding approached saturation its corresponding RU fell between 200 and 300. […] For each binding and dissociation cycle the chip surface was regenerated with 15 uL of 20 mM NaOH (5671-02, Mallinckrodt Baker, Philliphsburg, N.J.). The assay temperature was maintained at 25° C. with an analyte flow rate of 50 μL/min and included a 2 minute association phase and 10-30 minute dissociation phase. The on/off rates (kₐ/kd) and dissociation constants (KD) were determined using the format described above along with pseudo-first-order 1:1 interaction model software (Qdat, ICx Nomadics, Stillwater, Okla.).

[5] = molecular target: T1, human dimeric IL-23 (eBiosciences …); assay: cell-based or functional assay
3×FLAG-IL-6 [6] = molecular target: T3, 3×FLAG-IL-6; assay: SPR, 3×FLAG-IL-6 captured by anti-FLAG M2 on protein G, scFv as analyte (1-100 nM); remark: listed apart in the source

T3 sequence (chain, as listed by the source limits assumed): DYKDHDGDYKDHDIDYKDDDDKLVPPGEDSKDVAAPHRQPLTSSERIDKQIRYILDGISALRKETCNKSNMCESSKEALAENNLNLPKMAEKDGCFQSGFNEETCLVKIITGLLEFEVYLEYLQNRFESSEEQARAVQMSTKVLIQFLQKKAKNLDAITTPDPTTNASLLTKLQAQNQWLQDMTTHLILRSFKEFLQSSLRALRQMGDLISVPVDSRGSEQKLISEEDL

| Binder | Kd (3×FLAG-IL-6 [2]) | koff (3×FLAG-IL-6 [2]) | kon (3×FLAG-IL-6 [2]) | EC50, inhibition of IL-6 induced B9 cell proliferation (human IL-6 [3]) | Kd (3×FLAG-IL-6 [6]) | koff (3×FLAG-IL-6 [6]) | kon (3×FLAG-IL-6 [6]) | further results |
| --- | --- | --- | --- | --- | --- | --- | --- | --- |
| B1 | 0.0982 nM | 8.64e-05 s⁻¹ | 876000 M⁻¹ s⁻¹ | 0.064 ng/mL | – | – | – | EC50, neutralization of IL-6 (human IL-6 [1]): 0.059 ng/mL |
| B2 | – | – | – | 0.4 ng/mL | – | – | – | Kd (human IL-6 [4]): 0.042 nM; koff (human IL-6 [4]): 3.17e-05 s⁻¹; kon (human IL-6 [4]): 765000 M⁻¹ s⁻¹ |
| B3 | – | – | – | – | – | – | – | EC50: concentration necessary to inhibit bioactivity of 50 pg/ml of IL-6 [5]: 0.767 ng/mL |
| B4 | 0.089 nM | 4.03e-05 s⁻¹ | 447000 M⁻¹ s⁻¹ | 0.319 ng/mL | – | – | – | – |
| B5 | – | – | – | – | 0.062 nM | 8.99e-05 s⁻¹ | 1.46e+06 M⁻¹ s⁻¹ | – |
| B6 | – | – | – | – | 0.053 nM | 6.88e-05 s⁻¹ | 1.3e+06 M⁻¹ s⁻¹ | – |
| B7 | 0.109 nM | 0.0001 s⁻¹ | 918000 M⁻¹ s⁻¹ | 0.043 ng/mL | 0.109 nM | 0.0001 s⁻¹ | 918000 M⁻¹ s⁻¹ | – |
